Measurements taken from US20220315967A1, “METHODS FOR PRODUCING D-TRYPTOPHAN AND SUBSTITUTED D-TRYPTOPHANS” (priority 2019, published 2022).

Experiments:
[1] = biological target: T1, D-tryptophanyl-S-IvoA-ΔC(E^0)
T1 chain: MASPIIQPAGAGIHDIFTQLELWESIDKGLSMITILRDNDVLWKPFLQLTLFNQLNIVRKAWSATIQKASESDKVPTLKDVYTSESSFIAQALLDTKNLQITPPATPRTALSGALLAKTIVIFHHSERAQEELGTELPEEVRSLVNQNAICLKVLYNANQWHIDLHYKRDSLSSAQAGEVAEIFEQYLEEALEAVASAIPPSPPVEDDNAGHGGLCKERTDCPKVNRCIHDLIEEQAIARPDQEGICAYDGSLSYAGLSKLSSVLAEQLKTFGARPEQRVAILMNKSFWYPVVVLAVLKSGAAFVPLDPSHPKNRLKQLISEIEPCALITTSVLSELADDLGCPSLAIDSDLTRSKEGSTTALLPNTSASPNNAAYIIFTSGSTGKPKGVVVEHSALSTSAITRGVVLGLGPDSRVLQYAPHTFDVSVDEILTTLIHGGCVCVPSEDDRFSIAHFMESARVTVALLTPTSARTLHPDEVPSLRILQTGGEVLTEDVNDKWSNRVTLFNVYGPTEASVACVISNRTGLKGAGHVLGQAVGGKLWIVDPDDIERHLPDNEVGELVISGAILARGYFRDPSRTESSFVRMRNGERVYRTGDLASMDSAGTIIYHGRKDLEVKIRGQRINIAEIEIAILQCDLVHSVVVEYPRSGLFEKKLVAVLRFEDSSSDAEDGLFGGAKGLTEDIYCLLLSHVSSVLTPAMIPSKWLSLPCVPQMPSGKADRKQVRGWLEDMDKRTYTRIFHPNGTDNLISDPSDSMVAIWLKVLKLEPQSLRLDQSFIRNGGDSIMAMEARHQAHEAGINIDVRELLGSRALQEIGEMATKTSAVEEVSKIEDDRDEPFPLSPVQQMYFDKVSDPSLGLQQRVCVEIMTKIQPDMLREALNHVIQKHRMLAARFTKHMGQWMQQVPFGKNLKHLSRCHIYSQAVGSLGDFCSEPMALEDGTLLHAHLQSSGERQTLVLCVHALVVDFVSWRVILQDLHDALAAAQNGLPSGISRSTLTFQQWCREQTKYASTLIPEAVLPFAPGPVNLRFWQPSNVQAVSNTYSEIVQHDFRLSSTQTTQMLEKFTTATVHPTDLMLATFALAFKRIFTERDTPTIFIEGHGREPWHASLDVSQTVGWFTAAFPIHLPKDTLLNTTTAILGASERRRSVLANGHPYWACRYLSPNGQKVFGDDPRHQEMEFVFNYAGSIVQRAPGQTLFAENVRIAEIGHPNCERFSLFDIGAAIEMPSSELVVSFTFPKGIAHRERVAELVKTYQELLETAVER

[2] = biological target: T2, L-tryptophanyl-S-IvoA-ΔC(E^0)
T2 chain: T1 chain

B1: standalone IvoA-C (condensation (C) domain of Aspergillus nidulans single-module NRPS IvoA) (protein)
chain: DLDLSAKLSSPLVCPADVVRSLEVNGVCIERDVEIVYTPSSIQQHMLWRQSQEPWFYRVQGDWTIEKTTTQSEPVDIDRLSHAWNQVVHRHTTLRTVFRYSSEEERFVAIVLHEVKPAISIIRKGIQTSGSLCRDDDLSPPHRMVLREKDNGSVVCELEFSHTIIDAASRSIVVQDLLDAYDGKLAHRPLDFPPFWEYIRLAQSSTPSARKEELHRAGRVVTLPFQPTHVLSKVPEACKKNEITISSFFMTAWSIVLAKHFVAHNQRVDSTSSQAVAFDYVLSDRSANIPGIESAVGPYIRLPTLETHVKEGVSLKNIARGLHAQCTFQSLSQSTQDGSSLELPSKATALQKYSTLVNIRNSGSDSLDLVSDSGEWKWILQGFSDPWDYDLVFAVNVHAGKVTGWTVEYADGVVEHSAADEIAKDLNDVVERMVCEII
[1]
  IvoA-C catalyzed hydrolysis of the protein-bound thioester; liberated free tryptophan quantified by LC-MS: IvoA-C stereoselectively hydrolyzed D-tryptophanyl-S-IvoA-ΔC(E^0) over L-tryptophanyl-S-IvoA-ΔC(E^0)
[2]
  IvoA-C catalyzed hydrolysis of the protein-bound thioester; liberated free tryptophan quantified by LC-MS: IvoA-C stereoselectively hydrolyzed D-tryptophanyl-S-IvoA-ΔC(E^0) over L-tryptophanyl-S-IvoA-ΔC(E^0)
